1 molecule from publication PMC4520738 can be followed below.

This data set has as its target hDNMT1 351-1600 R582E (Homo sapiens, UniProt P26358 351-1600, R582E). Briefly: EMSA. (Mobility shift assays separate free from complexed probe on a gel.)

hDNMT1 351-1600 R582E, sequence (P26358 351-1600 R582E): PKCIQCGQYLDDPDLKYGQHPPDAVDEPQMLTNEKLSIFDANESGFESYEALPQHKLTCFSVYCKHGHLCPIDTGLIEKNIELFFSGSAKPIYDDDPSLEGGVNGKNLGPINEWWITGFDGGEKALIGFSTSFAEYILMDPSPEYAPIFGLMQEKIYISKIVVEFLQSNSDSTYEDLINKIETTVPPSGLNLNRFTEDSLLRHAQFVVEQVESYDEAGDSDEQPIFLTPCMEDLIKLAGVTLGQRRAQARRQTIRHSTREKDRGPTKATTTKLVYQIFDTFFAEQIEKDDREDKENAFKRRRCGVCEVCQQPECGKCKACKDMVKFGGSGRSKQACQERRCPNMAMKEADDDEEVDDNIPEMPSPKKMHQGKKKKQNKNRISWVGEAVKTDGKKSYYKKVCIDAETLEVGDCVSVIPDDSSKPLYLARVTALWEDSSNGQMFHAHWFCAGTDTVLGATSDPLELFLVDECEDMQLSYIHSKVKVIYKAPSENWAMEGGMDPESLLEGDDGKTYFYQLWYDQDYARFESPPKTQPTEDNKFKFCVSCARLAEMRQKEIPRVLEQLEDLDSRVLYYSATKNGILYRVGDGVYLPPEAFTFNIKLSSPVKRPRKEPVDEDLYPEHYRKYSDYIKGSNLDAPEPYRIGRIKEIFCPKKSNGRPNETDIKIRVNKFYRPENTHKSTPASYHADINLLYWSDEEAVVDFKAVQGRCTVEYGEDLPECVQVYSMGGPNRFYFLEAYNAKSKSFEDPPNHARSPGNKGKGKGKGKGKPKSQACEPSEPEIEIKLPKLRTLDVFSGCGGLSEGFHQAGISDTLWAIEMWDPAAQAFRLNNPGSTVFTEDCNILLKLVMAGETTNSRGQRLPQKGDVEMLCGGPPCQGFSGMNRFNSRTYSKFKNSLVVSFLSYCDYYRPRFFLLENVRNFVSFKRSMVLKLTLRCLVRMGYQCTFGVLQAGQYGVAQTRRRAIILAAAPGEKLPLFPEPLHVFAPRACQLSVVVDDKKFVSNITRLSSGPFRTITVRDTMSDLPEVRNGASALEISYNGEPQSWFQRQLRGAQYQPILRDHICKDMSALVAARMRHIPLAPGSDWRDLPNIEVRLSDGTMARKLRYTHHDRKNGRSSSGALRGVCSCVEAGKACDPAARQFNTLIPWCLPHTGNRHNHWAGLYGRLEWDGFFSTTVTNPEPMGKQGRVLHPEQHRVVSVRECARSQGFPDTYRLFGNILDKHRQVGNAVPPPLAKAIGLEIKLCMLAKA

B1: 26-mer hemimethylated CpG DNA (dsDNA)
DNA 1: ACACCAAGCCTGCGGAGGCTCACGGA
DNA 2: TCCGTGAGCCTCCGCAGGCTTGGTGT
modifications: 5-methyl-2'-deoxycytidine at position 13 of strand 1 (upper)
Regarding B1, the binding result is “binds”.
